Laboratory results from the DeepSol protein solubility set.

Assay: soluble on expression in E. coli; label from the status in PepcDB or PDB records

MIKQRTLKQSIKVTGVGLHSGEKVTLTLRPAMPNTGVVYYRTDLNPAVAFPADPNSVRDTMLCTALINEQGVRISTVEHLNAALAGLGIDNIIIEVDAPEIPIMDGSASPFIYLLLDAGIEEQNAAKKFIRIKQYVRVEDGDKWAEFKPYNGFRLDFTIDFDHPAIGKDVRNYEMNFSAQAFVHQISRARTFGFMKDIEYLQSQGLVLGGSLDNAIVLDDYRILNEDGLRFKDELVRHKMLDAIGDLYMAGYNIIGDFKAYKSGHGLNNKLLRAVLANQEAWEFVTFEDKAQVPQGYVAPVQVLILEHHHHHH
soluble on expression in E. coli: soluble

MAHHHHHHMANSRASTLAAAAAAASTAAVKPLSYVSLRSHDGKHVILPVAAAAGSRVLHGIFQGLYVMRLHQCNSPADQPPHAQHEQYPMVEEDAQQGELHIPRSGSSSSSGSDVANKAHGSAEVKVDDPIPIIEDEDDIEEDEARHQVNGAAYRSYAAVFPSNVACVPPPPSPLLSTSPPAAPSPCVPPLLEVPICSLEFSTLMRVAEFLVVKITLASHPHYLHEANVFGDLDRTSERDQLVAMQVLLGADFLNC
soluble on expression in E. coli: not soluble

MTATLSWIDEITMTELERNPYPVYERLRAEAPLAYVPVLGSFVATTADLCRTIANSPDFEGIITKAGGRTFGHPAVIGVNGEIHRDLRSMVDPALQPSEVDRWVDGLVRPIARRYVEQFENDGKADLVSQYCEPVSVRALGDLLGLNEVSSDTLRDWFHRLSNSFTNAGVDADGEFTNPEGFVQGDEAKAEIRAVVDPLIDKWTVHPDDSAISHWLHDGMPEGQVRDREYIYPTLFVYLLGAMQEPGHGMASTLVGLFTRPEQLEAVIDEPALIPRAISEGMRWTSPIWSATARISTKDVTLGDVFLPEGSVVLLSYGSANHDTAVYDAPSDYDMTRPPLPHLAFGSGNHACAGIYFANHVCRIGLEELFEAIPNLERDSGADVEFWGWGFRGPTALRATWEV
soluble on expression in E. coli: not soluble

MAHHHHHHMNKTKIESSYFTYQNNHSKIGNPILYKGEVIGMEIIDIRVKDDVEGLFNVCSCYLDNEHHAYNKCSESDIHYMQISSIRIIIKIVHNINILTGKKLHINLQDYVTPYPIKSAFIIKKVEHYSCNNINNKSFNEIQEHFYNNEKKLKFYNIFLYETDLQEFKEDIIFENPGMYLLCYTSNDSQSEYSAELSTILVNGNY
soluble on expression in E. coli: not soluble

MGSDKIHHHHHHMQISFISHEYPPVSGGGSTALHEYASGLATRGHAVQVVTVGTGAHDTVDTEDGVQVVRLAAGRKSLLAPSKAELIRSCAALRLKSMPHLRRHEPEVLVAFFAFPAGFLAAPLAAKLNIPLVVSLRGSDVPGFSAKRLGVFGPLLPYLFRRATRHAAAVVPNGRRLADMAAPYLHTGSRVQVIPNGVDTLRFAPQGAEHGSMGGPLRVLFVGQMIARKQCLVLAQALHEVAARGVPLQVSFAGSGPLEQDIRRIVSSLDPVVGVTFTGHVPRNAIADLYGAHDVLVHLSQAEGVSNVLMEALSSGLCLVAADTAVDAAIDGVPRQAPAEDGGIILLPVDCGPVVLGATLAGLACNRSLVEEQQRLARRTALKNSWQVRVGELEDLLTGSIAGCQAS
soluble on expression in E. coli: not soluble

MPRPSLRRGEETSGARSLHEIAPPAEKAVRKPLNLLPFRKDTPMTKDSYFHKSRAGVAGAPLFVLLHGTGGDENQFFDFGARLLPQATILSPVGDVSEHGAARFFRRTGEGVYDMVDLERATGKMADFIKANREHYQAGPVIGLGFSNGANILANVLIEQPELFDAAVLMHPLIPFEPKISPAKPTRRVLITAGERDPICPVQLTKALEESLKAQGGTVETVWHPGGHEIRSGEIDAVRGFLAAYGG
soluble on expression in E. coli: soluble

MAHHHHHHMGTLEAQTQGPGSMSVMPDHWIKERALKDGMISPFVDHKEGTGVLSYGLSSYGYDARLDNKFKIFANTHSVVVDPKNFSQDSFVDREGDFCIIPPNSFMLAKTVEYFNIPRDVMVVCVGKSTYARCGIVVNVTPLEPGWSGYVTLEFSNTSPLPVKVYAFEGACQFLFFSGKERCSKSYDEAGGKYMGQSDVTLPIIS
soluble on expression in E. coli: soluble

MRRILVLTKNILVEQTFQQQLQHLNYEVFCTNCCEETIEHELTFFNYFDAIVLSETLSQNDCLRLLGSLSSLEKPIYRRSQSMCNKREAEIWQERGIIRWLGLKDSLEDIREKIDTVDQSFAEVTAELLDDQVKKIRFTKNEQRFLKILYQHAHEGLDRDQICRLLWQKEPDASTKSQLSFVCKRVKQKFSDAGMNEEIITTYWGKGYQINEQILPYLEQTLFETAQ
soluble on expression in E. coli: not soluble

MQIVEAIYEDGVLKLLKNLKLKEHSKVIIKVIDEEEIEKILDSRDYLEHHHHHH
soluble on expression in E. coli: not soluble

LLEIDFAELTLEEIIGIGGFGKVYRAFWIGDEVAVKAARHDPDEDISQTIENVRQEAKLFAMLKHPNIIALRGVCLKEPNLCLVMEFARGGPLNRVLSGKRIPPDILVNWAVQIARGMNYLHDEAIVPIIHRDLKSSNILILQKVENGDLSNKILKITDFGLAREWHRTTKMSAAGAYAWMAPEVIRASMFSKGSDVWSYGVLLWELLTGEVPFRGIDGLAVAYGVAMNKLALPIPSTCPEPFAKLMEDCWNPDPHSRPSFTNILDQLTTI
soluble on expression in E. coli: soluble

MGSDKIHHHHHHMCVKKGESSITSLVSAFGRAYHSEFDSPKIFDDYVAKEFISPKERSDIETNMVQGIHFFNTDIAEQFQDNPKEILKWITQVQLSPTPLARAAYCERVLLHEITLGAKQYVILGAGLDTFSFRHRELENKIEIFEVDHPSTQQFKKERIKEAELEVPNNLHFVSMDFTKGFSYEQLRNEGFEHKKTFFSLLGVSYYLTKEELASLIECLFEMVPEGSSIVFDYPDENLFTEKGLSNRVENMVKMAAVGGEPMKSCYSYAEMEALLEKAGLLIYEHLSPEDINAFYFEGRNDYLKAFETVHYVHAVKK
soluble on expression in E. coli: not soluble

MFFLEHGKVRTFLTPTLRCPMEKTTTQELLAQAEKICAQRNVRLTPQRLEVLRLMSLQDGAISAYDLLDLLREAEPQAKPPTVYRALDFLLEQGFVHKVESTNSYVLCHLFDQPTHTSAMFICDRCGAVKEECAEGVEDIMHTLAAKMGFALRHNVIEAHGLCAACVEVEACRHPEQCQHDHSVQVKKKPR
soluble on expression in E. coli: not soluble

MLEDLRANSWSLRPCCMVLAYRIAHFCSVWRKKNVLNNLWAAPVLVLYRVITECLFGYEIQAAATIGRRFTIHHGYAVVINKHVVAGDDFTIRHGVTIGNRGADSLACPVIGNGVELGANVILLGDITIGNHVTIGAGSVVLDSIPDHALVVGEKARVKVST
soluble on expression in E. coli: not soluble

VQASDRTWQSNFIRRWYFTETVEYRPLVKYDASMSWDERTVSALEGAFRSEVRARRVNGPHRDVIVSLDGAEFLVRWLTTGWPRQVAEALHATSRPDILAAPTMSPGARKAAHDAGVGWVDESGAADIHYRNTSTGTTLVIETKGAPPAPLDARIGWRRATLAVCEALLANIAGPTVASVVEATGLSMGSSAQALKFLEKNGHLASATARGPKSARLIVDRDALLDAYAEAADKLRSPISISTGVLWRDPTAGVVKAGQLWDAAGIEWAATSALSASLLAPMQTEIAPMEIYVPGRSWSDLRRAAMAAGLQEIAGGRLILRFFPTPACARLTEQNLQGFRSMLWPRVYADLRTAGVRGEDAAEHLREAMTK
soluble on expression in E. coli: not soluble

MGSDKIHHHHHHMNFTKIAVSAGCILALCAGCGANDTSSTKEKASSEKSGVTKEITASVNKMETIISKLNDSVEKGDQKEIEKKGKELNSYWLSFENDIRSDYPFEYTEIEKHLQPIYTEAQKDKPDAGKIKTESESLKASLEDLTEAKKSGKKASDQLAKAADEYKGYVKEQSDQLVKATEAFTGAVKSGDIEKSKTLYAKARVYYERIEPIAESLGDLDPKIDARENDVEEGDKWTGFHKLEKAIWKDQDISGEKATADQLLKDVKELDGSIQSLKLTPEQIVAGAMELLNEAGISKITGEEERYSRIDLVDLMANVEGSEAVYQTVKSALVKDHSDLTEKLDTEFSEFEVLMAKYKTNDQSYTSYDKLSEKQIRELSTKLTTLSETMSKIANVL
soluble on expression in E. coli: not soluble

MALVFVYGTLKRGQPNHRVLRDGAHGSAAFRARGRTLEPYPLVIAGEHNIPWLLHLPGSGRLVEGEVYAVDERMLRFLDDFESCPALYQRTVLRVQLLEDRAPGAEEPPAPTAVQCFVYSRATFPPEWAQLPHHDSYDSEGPHGLRYNPRENR
soluble on expression in E. coli: soluble

DAAPAPAAEAAPAAAPAPAAAAELKEVHVPDIGGDEVEVTEIMVAIGDSIEEEQSLITVEGDKASMEVPAPFAGTLKEIKVAAGDKVSTGSLIMVFETAGSGAPAAPAAVEAPAAAAPAASAA
soluble on expression in E. coli: not soluble

MGSDKIHHHHHHDMNKLDSDYSVYTDYDNSVHFNEFSTYYLPDSILVPDNSLKANYWKDENAQNIISAVAHEMEQKGYVRTEDKEKANVGIQLSYAQQRIQMTTGGWYGGWWDAGFWGPYWGGGWYYPYPVTYSYDTGTLIMEMVDLRQPADKSNQNKLPVIWHAYASGLLYGNSHFNMQLTLNAVNQAFAQSPYLSNKQ
soluble on expression in E. coli: not soluble

MSIRSWPAAERPRERLLELGAASLSDAELLAIFLRTGVAGKSAVDLARHLLNQFDGLRSLLDADQPAFTAQLGLGPAKFAQLQAVMEMARRHMAESLRRDSALENPAQVRNYLKAQLRHEPHEVFACLFLDNKHRVMTFEILFRGTINASYVHPRQVVKRALAHNAASLILCHNHPSGITTPSRSDIDLTKRLKEALKLVDVHVLDHVIVGDGEPLSMVEKGLM
soluble on expression in E. coli: not soluble

MSLAFGLDKLVDLLKAAGEPTRFRLLALLSAGDLTVTDLTEILGQSQPRISRHLKLLTEEGLIERYQEGAWAYFRLRQDGEPAVVVRQLLGAASPSDAVLQRDSERLATVKRVRAERAQDYFSRNASAWDELRRLHVSDEAVEGALLKLVGTTPIDSLLDLGTGTGRILQLLSGIYRRAIGVDASRDMLSVARANLDKAGVGNASVRHGDILNLPLEGQDFDLIVIHQVLHFLDQPEIALSEAARMLRPGGRLIVIDLAPHSFEYLRDEHAHVRLGFSHPLMEEWMKKAGLSLERAVDLHSEKASDEALDVTIWVARDQRLLMADDVVQEAVLLRSGRAEGHHHHHH
soluble on expression in E. coli: soluble

DLYFNPRFLADDPQAVADLSRFENGQELPPGTYRVDIYLNNGYMATRDVTFNTGDSEQGIVPCLTRAQLASMGLNTASVAGMNLLADDACVPLTTMVQDATAHLDVGQQRLNLTIPQAFMSNRAR
soluble on expression in E. coli: soluble

MRILPQIMAAIVLASPALSQCGGGFSSFVDGLKAEAVSMGHDAALVDRFFQGAAQDAKVLKADRAQGVFQKPFVEFSRRLISQNRLDTGKAMGRKYDAVFDRIEAEYGVSRGVLLAFWAFETDFGGFQGDFNTRNALITLAHDCRRPELFRPQIFAAIELYSHGDFDPARTTGAWAGEIGMVQMLPRDILENGVDGDGDGHVTLKTSAPDALMSGARMLSHLGWRAGEPWLQEVTLPAQMDWSLSGPGKPRSAGEWQAMGVRPRAGDLADLPASLILPQGHKGPAFLAYPNFDVYFEWNQSFVYVLTAAYFGTRLEGGQVYDAGNPAPGLDGAGMKALQQKLQARGHDVGKIDGILGAGTRAAVQAEQARLGLPADAWPTAELLNRL
soluble on expression in E. coli: not soluble

MQILKAIGLLMEYPDDELWECRDEALTLIQHDAPMLADFTRELLYAPLLDKQAEWCEVFDRGRATSLLLFEHVHAESRDRGQAMVDLLSQYETVGLHLNCRELPDHLPLYLEYLSVLPEAEAREGLQNIAPILALLGGRLKQRGAPWYQLFDALLTLAGSTLTSDSVTKQIIQESRDDTRQALDAVWEEEQVKFIEDNATTCDSSPLHHYQRRFSQDAAPQYVDVSAGGPK
soluble on expression in E. coli: not soluble

MKETEQVSEAPHGLEGAWLDLTNRVRVSGDTVEACSAFSIGPPRCRWLLQATDRGVNCAALDHYVPHICGTHTETVYHIAHHRYIKRAVCEIPFFRFHKARIQVCTAKIACTEQVLPSADTDYPCLEPNDLIVGPSALNRAPRYTRAQDSTIEALILIVVGPDGTSDWRDGKLDDRPPYLTPAAIESLATRYPNMRHLLTNLPSVDRRRDGGLVRSHRAFFATDFAGDGTPSESPQKTITELLRVPPDWQLYDDAEGVVCISLAPIEGLDAIPSSVYFKSH
soluble on expression in E. coli: not soluble
